In publication PMC5624731 (2018):

Legend:
Assay in all cases: nESI-MS
[1] = target: PCBP1 (Homo sapiens, UniProt Q15365)
[2] = target: PCBP1 (apo) (Homo sapiens, UniProt Q15365)
[3] = target: Ferredoxin (Spinacia oleracea, UniProt P00221)
Chain of Ferredoxin (P00221 51-147): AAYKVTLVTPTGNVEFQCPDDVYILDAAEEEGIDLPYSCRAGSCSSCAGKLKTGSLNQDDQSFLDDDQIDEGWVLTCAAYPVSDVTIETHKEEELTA

Chain of PCBP1 (Q15365 whole entry): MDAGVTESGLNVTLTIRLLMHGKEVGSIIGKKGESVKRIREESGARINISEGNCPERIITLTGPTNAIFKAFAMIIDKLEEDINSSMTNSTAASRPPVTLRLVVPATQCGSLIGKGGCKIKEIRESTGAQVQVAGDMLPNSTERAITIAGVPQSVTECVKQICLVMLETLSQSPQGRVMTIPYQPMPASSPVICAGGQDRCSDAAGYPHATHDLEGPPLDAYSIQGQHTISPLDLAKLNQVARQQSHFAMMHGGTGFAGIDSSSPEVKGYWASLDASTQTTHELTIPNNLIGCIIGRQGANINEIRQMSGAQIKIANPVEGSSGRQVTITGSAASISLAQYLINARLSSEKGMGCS
Chain of PCBP1 (apo) (Q15365 whole entry): as above

Row | Binder | Kd [1] | further results
1 | HDAC8 (Zn) (protein, Zn2+-bound HDAC8) MEEPEEPADSGQSLVPVYIYSPEYVSMCDSLAKIPKRASMVHSLIEAYALHKQMRIVKPKVASMEEMATFHTDAYLQHLQKVSQEGDDDHPDSIEYGLGYDCPATEGIFDYAAAIGGATITAAQCLIDGMCKVAINWSGGWHHAKKDEASGFCYLNDAVLGILRLRRKFERILYVDLDLHHGDGVEDAFSFTSKVMTVSLHKFSPGFFPGTGDVSDVGLGKGRYYSVNVPIQDGIQDEKYYQICESVLKEVYQAFNPKAVVLQLGADTIAGDPMCSFNMTPVGIGKCLKYILQWQLATLILGGGGYNLANTARCWTYLTGVILGKTLSSEIPDHEFFTAYGPDYVLEITPSCRPDRNEPHRIQQILNYIKGNLKHVV | 60 µM | –
2 | HDAC8 (protein) MEEPEEPADSGQSLVPVYIYSPEYVSMCDSLAKIPKRASMVHSLIEAYALHKQMRIVKPKVASMEEMATFHTDAYLQHLQKVSQEGDDDHPDSIEYGLGYDCPATEGIFDYAAAIGGATITAAQCLIDGMCKVAINWSGGWHHAKKDEASGFCYLNDAVLGILRLRRKFERILYVDLDLHHGDGVEDAFSFTSKVMTVSLHKFSPGFFPGTGDVSDVGLGKGRYYSVNVPIQDGIQDEKYYQICESVLKEVYQAFNPKAVVLQLGADTIAGDPMCSFNMTPVGIGKCLKYILQWQLATLILGGGGYNLANTARCWTYLTGVILGKTLSSEIPDHEFFTAYGPDYVLEITPSCRPDRNEPHRIQQILNYIKGNLKHVV | 63 µM | –
3 | HDAC8 (Fe) (protein, Fe2+-bound HDAC8) MEEPEEPADSGQSLVPVYIYSPEYVSMCDSLAKIPKRASMVHSLIEAYALHKQMRIVKPKVASMEEMATFHTDAYLQHLQKVSQEGDDDHPDSIEYGLGYDCPATEGIFDYAAAIGGATITAAQCLIDGMCKVAINWSGGWHHAKKDEASGFCYLNDAVLGILRLRRKFERILYVDLDLHHGDGVEDAFSFTSKVMTVSLHKFSPGFFPGTGDVSDVGLGKGRYYSVNVPIQDGIQDEKYYQICESVLKEVYQAFNPKAVVLQLGADTIAGDPMCSFNMTPVGIGKCLKYILQWQLATLILGGGGYNLANTARCWTYLTGVILGKTLSSEIPDHEFFTAYGPDYVLEITPSCRPDRNEPHRIQQILNYIKGNLKHVV | 44 µM | –
4 | HDAC8 (apo) (protein) MEEPEEPADSGQSLVPVYIYSPEYVSMCDSLAKIPKRASMVHSLIEAYALHKQMRIVKPKVASMEEMATFHTDAYLQHLQKVSQEGDDDHPDSIEYGLGYDCPATEGIFDYAAAIGGATITAAQCLIDGMCKVAINWSGGWHHAKKDEASGFCYLNDAVLGILRLRRKFERILYVDLDLHHGDGVEDAFSFTSKVMTVSLHKFSPGFFPGTGDVSDVGLGKGRYYSVNVPIQDGIQDEKYYQICESVLKEVYQAFNPKAVVLQLGADTIAGDPMCSFNMTPVGIGKCLKYILQWQLATLILGGGGYNLANTARCWTYLTGVILGKTLSSEIPDHEFFTAYGPDYVLEITPSCRPDRNEPHRIQQILNYIKGNLKHVV | – | Kd [2]: 68 µM
5 | Ferredoxin-NADP+ reductase (protein) QIASDVEAPPPAPAKVEKHSKKMEEGITVNKFKPKTPYVGRCLLNTKITGDDAPGETWHMVFSHEGEIPYREGQSVGVIPDGEDKNGKPHKLRLYSIASSALGDFGDAKSVSLCVKRLIYTNDAGETIKGVCSNFLCDLKPGAEVKLTGPVGKEMLMPKDPNATIIMLGTGTGIAPFRSFLWKMFFEKHDDYKFNGLAWLFLGVPTSSSLLYKEEFEKMKEKAPDNFRLDFAVSREQTNEKGEKMYIQTRMAQYAVELWEMLKKDNTYFYMCGLKGMEKGIDDIMVSLAAAEGIDWIEYKRQLKKAEQWNVEVY | – | Kd [3]: 16 µM
